Labelling of the 47/45S pre-rRNA precursor in N1S1 cells treated with TAT-22mer data for one molecule are collected here from article PMC4233170.

The assay deals with FLAG-tagged Rrn3 purified from infected Sf9 cells (not stated (human or mouse cDNA cloned)) (UniProt Q9NYV6).
UniProt Q9NYV6, sequence (Q9NYV6 whole entry): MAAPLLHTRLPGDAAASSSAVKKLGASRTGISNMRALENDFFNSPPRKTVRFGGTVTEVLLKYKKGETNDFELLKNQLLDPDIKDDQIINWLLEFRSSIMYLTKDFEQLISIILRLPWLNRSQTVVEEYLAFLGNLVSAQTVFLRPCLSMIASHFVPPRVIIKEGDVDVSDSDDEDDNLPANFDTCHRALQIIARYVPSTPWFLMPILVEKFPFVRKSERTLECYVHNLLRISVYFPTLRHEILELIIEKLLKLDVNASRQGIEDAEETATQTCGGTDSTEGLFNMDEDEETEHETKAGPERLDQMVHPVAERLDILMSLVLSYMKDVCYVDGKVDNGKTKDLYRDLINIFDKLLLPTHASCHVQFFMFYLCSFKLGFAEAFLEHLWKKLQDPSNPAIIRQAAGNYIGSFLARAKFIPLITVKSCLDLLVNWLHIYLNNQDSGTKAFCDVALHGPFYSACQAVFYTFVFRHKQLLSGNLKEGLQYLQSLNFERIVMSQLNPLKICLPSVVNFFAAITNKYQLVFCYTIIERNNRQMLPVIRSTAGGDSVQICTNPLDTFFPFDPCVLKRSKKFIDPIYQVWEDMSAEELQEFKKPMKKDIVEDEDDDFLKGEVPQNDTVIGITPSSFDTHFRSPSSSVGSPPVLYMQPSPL

B1: TAT-22mer: HIV TAT based cell penetrating peptide coupled to the 22mer of rpa43 (peptide)
peptide: GGGRKKRRQRRRNKVSSSHIGCLVHGCFNASIPK
As to B1, the labelling of the 47/45S pre-rRNA precursor in N1S1 cells treated with TAT-22mer stood at 70 % inhibition.
